{"source": "paper PMC6335408", "about": "(Nature Communications, 2019)", "key": {"[1]": {"biological_target": "T1, USP7 Ubl45 (last two Ubl domains with the activating C-terminal tail) (UniProt Q93009 890-1102)", "T1 construct": "USP7 Ubl domains 4 and 5 with the C-terminal tail, residues 890-1102 (25 kDa); source: E. coli BL21, purified (Glutathione Sepharose, 3C cleavage, anion exchange, gel filtration); 15N-labelled in M9 minimal medium for NMR", "T1 sequence (Q93009 890-1102)": "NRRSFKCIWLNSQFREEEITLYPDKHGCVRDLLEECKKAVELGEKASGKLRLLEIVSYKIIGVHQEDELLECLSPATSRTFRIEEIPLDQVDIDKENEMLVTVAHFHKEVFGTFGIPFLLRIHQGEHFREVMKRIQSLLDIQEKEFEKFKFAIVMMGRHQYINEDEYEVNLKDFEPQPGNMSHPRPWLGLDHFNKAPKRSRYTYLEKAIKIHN", "test": "SPR; GST-USP7CD captured by anti-GST antibody on CM5 chip, Ubl45 or Ubl45ΔC flowed over; Biacore T200, 25 °C; 20 mM HEPES pH 7.5, 100 mM NaCl, 1 mM DTT, 1 mM EDTA, 0.05% Tween-20, 1 mg/mL BSA, 1 mg/mL dextran; equilibrium fit 1:1, extrapolated", "settings": "both partners purified"}, "[2]": {"biological_target": "T2, Ubl45^ΔC (tailless Ubl45) (UniProt Q93009 890-1082)", "T2 construct": "USP7 Ubl45 without the C-terminal tail: stop codon introduced at residue 1083; start 890 as told for Ubl45; also called tailless construct; source: E. coli BL21, purified (Glutathione Sepharose, 3C cleavage, anion exchange, gel filtration)", "T2 sequence (Q93009 890-1082, stated change not applied)": "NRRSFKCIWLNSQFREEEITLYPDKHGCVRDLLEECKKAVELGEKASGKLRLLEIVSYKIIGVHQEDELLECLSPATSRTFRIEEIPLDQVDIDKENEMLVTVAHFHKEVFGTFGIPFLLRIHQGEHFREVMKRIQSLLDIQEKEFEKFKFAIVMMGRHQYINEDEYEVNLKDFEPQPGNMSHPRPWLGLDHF", "test": "SPR; GST-USP7CD captured by anti-GST antibody on CM5 chip, Ubl45 or Ubl45ΔC flowed over; Biacore T200, 25 °C; 20 mM HEPES pH 7.5, 100 mM NaCl, 1 mM DTT, 1 mM EDTA, 0.05% Tween-20, 1 mg/mL BSA, 1 mg/mL dextran; equilibrium fit 1:1, extrapolated", "settings": "both partners purified"}}}
{"binder": "GST-USP7CD (domain or fragment, GST tag (used for chip immobilisation) left out; limits 208-560 are the usual USP7 CD construct limits, not printed in the text (consistent with the stated 42 kDa)) KKHTGYVGLKNQGATCYMNSLLQTLFFTNQLRKAVYMMPTEGDDSSKSVPLALQRVFYELQHSDKPVGTKKLTKSFGWETLDSFMQHDVQELCRVLLDNVENKMKGTCVEGTIPKLFRGKMVSYIQCKEVDYRSDRREDYYDIQLSIKGKKNIFESFVDYVAVEQLDGDNKYDAGEHGLQEAEKGVKFLTLPPVLHLQLMRFMYDPQTDQNIKINDRFEFPEQLPLDEFLQKTDPKDPANYILHAVLVHSGDNHGGHYVVYLNPKGDGKWCKFDDDVVSRCTKEEAIEHNYGGHDDDLSVRHCTNAYMLVYIRESKLSEVLQAVTDHDIPQQLVERLQEEKRIEAQKRKERQE", "values": [{"measurement": "Kd", "setting": "[1]", "value": "~280", "unit": "µM"}, {"measurement": "Kd", "setting": "[2]", "value": 420, "unit": "µM"}]}
